According to paper PMC9352346:

Molecular target: GST-Smad4-linker-MH2
Assay: GST pull-down, immunoblot band quantification
Conditions: HEK293T cell lysate; n=3; read off a plot

Arl15-WT-GFP A86L showed an other: relative amount of Arl15-AL-GFP pulled down of 1.1.
